Laboratory results taken from patent publication US20230242646A1 (JJP BIOLOGICS SP Z O O, published 2023).

How the values were obtained:
[1] = target: T1, membrane-bound full-length human CD89 on HEK293F cells (human, UniProt P24071 22-287); test: FACS HEK293F-huCD89
T1 construct: 2 or transient transfectants; also called membrane human CD89; human FcaRI
Description: After extensive washing in PBS/BSA/NaN₃, cells were subsequently incubated with 1:200 diluted PE-conjugated goat anti-human IgG Fcy-specific antibodies (Jackson ImmunoResearch) for 30 minutes at 4° C. After extensive washing in PBS/BSA/NaN₃, cells were fixed in 2% formaldehyde in PBS/BSA/NaN₃ for 30 minutes at 4° C.

[2] = target: T1, membrane-bound full-length human CD89 …; test: FACS HEK293F-huCD89, 10 ug/mL; competitor PE-MIP8a
Description: Then, 10 µL/tube (i.e., 0.1 × 10⁶ cells) of these cells were incubated with or without 100 µL purified mouse anti-human CD89 antibody at 10 µg/mL (in PBS/BSA/NaN₃) for 30 minutes at 4° C. […] After extensive washing in PBS/BSA/NaN₃, cells were fixed in 2% formaldehyde in PBS/BSA/NaN₃ for 30 minutes at 4° C.

[3] = target: T2, membrane full-length cynomolgus monkey CD89 on HEK293F cells (cynomolgus monkey); test: FACS, transiently transfected HEK293F
T2 construct: also called cynoCD89; cynomolgus EC1-CD89
T2 chain: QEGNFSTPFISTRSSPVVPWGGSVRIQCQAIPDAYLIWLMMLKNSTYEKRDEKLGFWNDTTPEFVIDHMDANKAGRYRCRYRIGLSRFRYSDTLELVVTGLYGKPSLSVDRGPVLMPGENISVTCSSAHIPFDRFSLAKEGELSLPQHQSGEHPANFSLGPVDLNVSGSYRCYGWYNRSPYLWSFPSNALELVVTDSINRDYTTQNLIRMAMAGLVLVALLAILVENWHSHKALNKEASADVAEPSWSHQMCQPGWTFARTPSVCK
Description: To this end, transient transfected HEK293F cells were put at 10 x 10⁶ cells/mL in ice-chilled phosphate-buffered saline containing 0.1% BSA (Sigma)/0.05% NaN₃ (PBS/BSA/NaN₃) supplemented with 50 µg/mL human IgGs (blocking FcY receptors; Sigma) for 10 minutes at 4° C. Then, 10 µL/tube (i.e., 0.1 × 10⁶ cells) of these cells were incubated with or without 100 µL purified mouse anti-human CD89 antibody at 10 µg/mL (in PBS/BSA/NaN₃) for 30 minutes at 4° C. […] After extensive washing in PBS/BSA/NaN₃, cells were subsequently incubated with 1:200 diluted PE-conjugated goat anti-mouse IgG Fcy-specific antibodies (Jackson ImmunoResearch) for 30 minutes at 4° C. After extensive washing in PBS/BSA/NaN₃, cells were fixed in 2% formaldehyde in PBS/BSA/NaN₃ for 30 minutes at 4° C.

[4] = target: T3, chimeric human/cynomolgus monkey CD89-hotspots on HEK293F cells (human/cynomolgus chimera, UniProt P24071 22-287); test: FACS, transiently transfected HEK293F
T3 construct: also called dThr58, Gln59; dArg73, Arg74, Lys76
T3 chain: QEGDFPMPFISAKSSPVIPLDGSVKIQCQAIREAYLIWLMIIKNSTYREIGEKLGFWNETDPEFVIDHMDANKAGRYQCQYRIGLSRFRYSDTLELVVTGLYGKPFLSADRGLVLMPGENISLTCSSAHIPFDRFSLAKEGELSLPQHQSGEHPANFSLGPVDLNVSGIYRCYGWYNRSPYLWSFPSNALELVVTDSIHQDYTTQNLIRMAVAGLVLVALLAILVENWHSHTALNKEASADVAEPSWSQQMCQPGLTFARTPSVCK
Description: To this end, transient transfected HEK293F cells were put at 10 × 10⁶ cells/mL in ice-chilled phosphate-buffered saline containing 0.1% BSA (Sigma)/0.05% NaN₃ (PBS/BSA/NaN₃) supplemented with 50 µg/mL human IgGs (blocking FcY receptors; Sigma) for 10 minutes at 4° C. Then, 10 µL/tube (i.e., 0.1 × 10⁶ cells) of these cells were incubated with or without 100 µL purified mouse anti-human CD89 antibody at 10 µg/mL (in PBS/BSA/NaN₃) for 30 minutes at 4° C. […] After extensive washing in PBS/BSA/NaN₃, cells were subsequently incubated with 1:200 diluted PE-conjugated goat anti-mouse IgG Fcy-specific antibodies (Jackson ImmunoResearch) for 30 minutes at 4° C. After extensive washing in PBS/BSA/NaN₃, cells were fixed in 2% formaldehyde in PBS/BSA/NaN₃ for 30 minutes at 4° C.

[5] = target: T1, membrane-bound full-length human CD89 …; test: FACS, antibody before serum IgA on HEK293F-huCD89; IgA detected
Description: Then, 10 µL/tube (i.e., 0.1 x 10⁶ cells) of these cells were incubated with 50 µL titrated (in PBS/BSA/NaN₃) purified mouse anti-human CD89 antibody/tube for 30 minutes at 4° C. […] After extensive washing in PBS/BSA/NaN₃, 1:200 diluted PE-conjugated streptavidin (Jackson ImmunoResearch) was added, and incubated for 30 minutes at 4° C. After extensive washing in PBS/BSA/NaN₃, cells were fixed in 2% formaldehyde in PBS/BSA/NaN₃ for 30 minutes at 4° C.

[6] = target: T4, recombinant C-terminal polyhistidine-tagged human (extracellular) CD89 (Sino Biological) (human, UniProt P24071 22-227); test: BLI (Octet RED96), biotinylated Ab on streptavidin tips, rhuCD89 analyte, 1:1 model
T4 construct: extracellular domain; bought protein; also called rhuCD89; soluble monomeric rhuCD89
Description: Equilibrium dissociation constants (KD) were determined using a 1:1 Langmuir binding model in Octet® RED96 software (ForteBio).

EC50 [1]: 0.637 µg/mL
% blocking of PE-MIP8a binding [2]: < 25%
binding result [3]: no binding (tested: 10 µg/mL)
binding result [4]: no binding (tested: 10 µg/mL)
IC50 (read off the curve) [5]: ~0.7 µg/mL
Kd [6]: 1.67 nM
koff [6]: 0.00111 s⁻¹
kon [6]: 687000 M⁻¹ s⁻¹
B1: CD89/IgA blocking mouse anti-human CD89-specific antibody 10E7 (antibody, V domains shown)
VH: EVQLVESGGGLVQPGGSLKLSCAASGLTFSSYGMSWVRQTPDKRLELVATINGNGDITYYPDSVKGRFTISRDNAKNTLYLQMSSLKSEDTAMYYCARDYDYDYAMDYWGQGTSVTVSS
VL: DIQMTQSTSSLSASLGDSVTISCRASQDIINYLNWYQQKPDGTVKLLIYYTSRLHSGVPSRFSGSGSGTEYSLTVSNLEKEDIATYFCQQGKTLPYTFGGGTKLEIK
notes: biotinylated in the Octet assay; also called mouse 10E7
